From patent US20210346432A1 (Memorial Sloan Kettering, published 2021)
No end group written: not given here. *: point of attachment. Biotin = O=C1N[C@H]2[C@H](CS[C@H]2CCCCC(=O)*)N1

T1: biotinylated BCMA-Fc protein (human, UniProt Q02223 1-54, biotinylated (site not stated))
T1 construct: also called BCMA recombinant antigen; not shown: Fc part
T1 sequence: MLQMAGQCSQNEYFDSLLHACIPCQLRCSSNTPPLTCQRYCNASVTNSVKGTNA

T2: ET140-p8 (human)
T2 construct: also called peptide 8
T2 peptide: Biotin-SGSGSQNEYFDSLLHACIP

T3: ET140-p25 (human, cysteine pairing not given here)
T3 construct: also called peptide 25
T3 peptide: Biotin-SGSGLRCSSNTPPLTCQRY

T4: ET140-p17 (human, cysteine pairing not given here)
T4 construct: also called peptide 17
T4 peptide: Biotin-SGSGLHACIPCQLRCSSNT

T5: ET140-p4 (human)
T5 construct: also called peptide 4
T5 peptide: Biotin-SGSGAGQCSQNEYFDSLLH

T6: ET140-p27 (human, cysteine pairing not given here)
T6 construct: also called peptide 27
T6 peptide: Biotin-SGSGCSSNTPPLTCQRYCN

T7: ET140-p7 (human, cysteine pairing not given here)
T7 construct: also called peptide 7
T7 peptide: Biotin-SGSGCSQNEYFDSLLHACI

T8: ET140-p15 (human, cysteine pairing not given here)
T8 construct: also called peptide 15
T8 peptide: Biotin-SGSGSLLHACIPCQLRCSS

T9: ET140-p32 (human, cysteine pairing not given here)
T9 construct: also called peptide 32
T9 peptide: Biotin-SGSGPPLTCQRYCNASVTN

T10: ET140-p2 (human)
T10 construct: also called peptide 2
T10 peptide: Biotin-SGSGQMAGQCSQNEYFDSL

T11: ET140-p30 (human, cysteine pairing not given here)
T11 construct: also called peptide 30
T11 peptide: Biotin-SGSGNTPPLTCQRYCNASV

T12: ET140-p10 (human, cysteine pairing not given here)
T12 construct: also called peptide 10
T12 peptide: Biotin-SGSGNEYFDSLLHACIPCQ

T13: ET140-p19 (human, cysteine pairing not given here)
T13 construct: also called peptide 19
T13 peptide: Biotin-SGSGACIPCQLRCSSNTPP

T14: ET140-p34 (human, cysteine pairing not given here)
T14 construct: also called peptide 34
T14 peptide: Biotin-SGSGLTCQRYCNASVTNSV

T15: ET140-p36 (human, cysteine pairing not given here)
T15 construct: also called peptide 36
T15 peptide: Biotin-SGSGCQRYCNASVTNSVKG

T16: ET140-p24 (human, cysteine pairing not given here)
T16 construct: also called peptide 24
T16 peptide: Biotin-SGSGQLRCSSNTPPLTCQR

T17: ET140-p5 (human)
T17 construct: also called peptide 5
T17 peptide: Biotin-SGSGGQCSQNEYFDSLLHA

T18: ET140-p35 (human, cysteine pairing not given here)
T18 construct: also called peptide 35
T18 peptide: Biotin-SGSGTCQRYCNASVTNSVK

T19: ET140-p1 (human)
T19 construct: also called peptide 1; ET140-pl
T19 peptide: Biotin-SGSGLQMAGQCSQNEYFDS

T20: ET140-p6 (human, cysteine pairing not given here)
T20 construct: also called peptide 6
T20 peptide: Biotin-SGSGQCSQNEYFDSLLHAC

T21: ET140-p31 (human, cysteine pairing not given here)
T21 construct: also called peptide 31
T21 peptide: Biotin-SGSGTPPLTCQRYCNASVT

T22: ET140-p3 (human)
T22 construct: also called peptide 3
T22 peptide: Biotin-SGSGMAGQCSQNEYFDSLL


Legend:
[1] = molecular target: T1, biotinylated BCMA-Fc protein; test: SPR (BIAcore X100), biotinylated BCMA-Fc captured on Sensor Chip CAP, antibody injected, 1:1 Langmuir fit
Method: In brief, 50 μg/mL of modified streptavidin was immobilized onto a Sensor Chip CAP by flowing the Biotin CAPture Reagent through the flow cells at 2 μL/min for 5 minutes. 10 ug/mL biotinylated BCMA-Fc protein was loaded onto the flow cell at a rate of 30 μL/min for 3 minutes. Following the standard protocol for kinetics, a series of injection of ESK1 was performed between 0.6 and 15 μg/mL, each step consisting of a 3 minute injection at 30 μL/min and 3 minute disassociation. […] Kinetic constants were derived by the global fitting (1:1 Langmuir binding model) using BIAcore ×100 Evaluation Software (Version 2.0.1).

[2] = molecular target: T2, ET140-p8; test: peptide ELISA, biotin peptide on streptavidin plate
Method: (§1) The peptides were coated onto Streptavidin plates at 2 ug/mL in PBST (PBS+0.05% Tween-20). After washing and blocking with 3% BSA. […] “mIgG1” used in all Examples represents that the variable region is fully human and the Fc part is mouse IgG1. Then HRP anti-mouse IgG detection antibody was added to each well. Finally, the color was developed using TMB substrate. A450 was recorded for data analysis.

[3] = molecular target: T3, ET140-p25; test: as above
Method: as §1

[4] = molecular target: T4, ET140-p17; test: as above
Method: as §1

[5] = molecular target: T5, ET140-p4; test: as above
Method: as §1

[6] = molecular target: T6, ET140-p27; test: as above
Method: as §1

[7] = molecular target: T7, ET140-p7; test: as above
Method: as §1

[8] = molecular target: T8, ET140-p15; test: as above
Method: as §1

[9] = molecular target: T9, ET140-p32; test: as above
Method: as §1

[10] = molecular target: T10, ET140-p2; test: as above
Method: as §1

[11] = molecular target: T11, ET140-p30; test: as above
Method: as §1

[12] = molecular target: T12, ET140-p10; test: as above
Method: as §1

[13] = molecular target: T13, ET140-p19; test: as above
Method: as §1

[14] = molecular target: T14, ET140-p34; test: as above
Method: as §1

[15] = molecular target: T15, ET140-p36; test: as above
Method: as §1

[16] = molecular target: T16, ET140-p24; test: as above
Method: as §1

[17] = molecular target: T17, ET140-p5; test: as above
Method: as §1

[18] = molecular target: T2, ET140-p8; test: peptide ELISA on streptavidin plate, antibody 1 ug/mL
Method: as §1

[19] = molecular target: T18, ET140-p35; test: as above
Method: as §1

[20] = molecular target: T19, ET140-p1; test: as above
Method: as §1

[21] = molecular target: T6, ET140-p27; test: as above
Method: as §1

[22] = molecular target: T20, ET140-p6; test: as above
Method: as §1

[23] = molecular target: T10, ET140-p2; test: as above
Method: as §1

[24] = molecular target: T11, ET140-p30; test: as above
Method: as §1

[25] = molecular target: T13, ET140-p19; test: as above
Method: as §1

[26] = molecular target: T21, ET140-p31; test: as above
Method: as §1

[27] = molecular target: T22, ET140-p3; test: as above
Method: as §1

[28] = molecular target: T17, ET140-p5; test: as above
Method: as §1

Kd [1] [nM] | binding result [2] | binding result [3] | binding result [4] | binding result [5] | binding result [6] | binding result [7] | binding result [8] | binding result [9] | A450 [18] | A450 [19] | A450 [20] | A450 [21] | A450 [22] | A450 [23] | A450 [24] | A450 [25] | A450 [26] | A450 [27] | A450 [28] | Binder | also measured
4.8 | no binding (tested: 1 ug/mL) | no binding (tested: 1 ug/mL) | no binding (tested: 1 ug/mL) | no binding (tested: 1 ug/mL) | no binding (tested: 1 ug/mL) | no binding (tested: 1 ug/mL) | no binding (tested: 1 ug/mL) | no binding (tested: 1 ug/mL) | 0.083 | 0.076 | 0.084 | 0.1 | 0.105 | 0.079 | 0.083 | 0.104 | 0.085 | 0.08 | 0.073 | ET140-174 mIgG1 (antibody, V domains shown, also called ET140-24 mIgG1; ET140-24) VH: EVQLVQSGAEVKKPGESLKISCKGSGYSFTSYWIGWVRQMPGKGLEWMGIIYPGDSDTRYSPSFQGHVTISADKSISTAYLQWSSLKASDTAMYYCARYSGSFDNWGQGTLVTVSS VL: not shown | binding result [10]: no binding (tested: 1 ug/mL); binding result [11]: no binding (tested: 1 ug/mL); binding result [12]: no binding (tested: 1 ug/mL); binding result [13]: no binding (tested: 1 ug/mL); binding result [14]: no binding (tested: 1 ug/mL); binding result [15]: no binding (tested: 1 ug/mL); binding result [16]: no binding (tested: 1 ug/mL); binding result [17]: no binding (tested: 1 ug/mL)
1.2 |  |  |  |  |  |  |  |  | 0.178 | 0.072 | 0.084 | 0.12 | 0.127 | 0.076 | 0.111 | 0.098 | 0.107 | 0.086 | 0.08 | ET140-153 mIgG1 (antibody, V domains shown, also called ET140-3 mIgG1; ET140-3) VH: QVQLVQSGAEVKKPGSSVKVSCKASGGTFSSYAISWVRQAPGQGLEWMGRIIPILGIANYAQKFQGRVTITADKSTSTAYMELSSLRSEDTAVYYCARGGYYSHDMWSEDWGQGTLVTVSS VL: LPVLTQPPSASGTPGQRVTISCSGRSSNIGSNSVNWYRQLPGAAPKLLIYSNNQRPPGVPVRFSGSKSGTSASLAISGLQSEDEATYYCATWDDNLNVHYVFGTGTKVTVLG | 
8.1 | no binding (tested: 1 ug/mL) | no binding (tested: 1 ug/mL) | no binding (tested: 1 ug/mL) | no binding (tested: 1 ug/mL) | no binding (tested: 1 ug/mL) | no binding (tested: 1 ug/mL) | no binding (tested: 1 ug/mL) | no binding (tested: 1 ug/mL) | 0.073 | 0.071 | 0.069 | 0.103 | 0.095 | 0.076 | 0.08 | 0.099 | 0.08 | 0.083 | 0.069 | ET140-204 mIgG1 (antibody, V domains shown, also called ET140-54 mIgG1; ET140-54) VH: EVQLVQSGAEMKKPGASLKLSCKASGYTFIDYYVYWMRQAPGQGLESMGWINPNSGGTNYAQKFQGRVTMTRDTSISTAYMELSRLRSDDTAMYYCARSQRDGYMDYWGQGTLVTVSS VL: QSALTQPASVSASPGQSIAISCTGTSSDVGWYQQHPGKAPKLMIYEDSKRPSGVSNRFSGSKSGNTASLTISGLQAEDEADYYCSSNTRSSTLVFGGGTKLTVLG | binding result [10]: no binding (tested: 1 ug/mL); binding result [11]: no binding (tested: 1 ug/mL); binding result [12]: no binding (tested: 1 ug/mL); binding result [13]: no binding (tested: 1 ug/mL); binding result [14]: no binding (tested: 1 ug/mL); binding result [15]: no binding (tested: 1 ug/mL); binding result [16]: no binding (tested: 1 ug/mL); binding result [17]: no binding (tested: 1 ug/mL)
